# In patent US20150368309A1 (SHIRE HUMAN GENETIC THERAPIES, published 2015):
# Several values for one entry are separate records, joined by “and”; a condition that tells them apart may be missing. Equal values may be shown once.
# B1: wild-type human PLGF protein (ligand)
# chain: LPAVPPQQWALSAGNGSSEVEVVPFQEVWGRSYCRALERLVDVVSEYPSEVEHMFSPSCVSLLRCTGCCGDENLHCVPVETANVTMQLLKIRSGDRPSYVELTFSQHVRCECRPLREKMKPERCGDAVPRR
# notes: also called WT PLGF; Human WT-PLGF
# B2: mouse WT PLGF (ligand, UniProt P49764 19-158, looked up)
# chain: VHSQGALSAGNNSTEVEVVPFNEVWGRSYCRPMEKLVYILDEYPDEVSHIFSPSCVLLSRCSGCCGDEGLHCVPIKTANITMQILKIPPNRDPHFYVEMTFSQDVLCECRPILETTKAERRKTKGKRKRSRNSQTEEPHP
# B3: PLGF C59A (ligand)
# chain: LPAVPPQQWALSAGNGSSEVEVVPFQEVWGRSYCRALERLVDVVSEYPSEVEHMFSPSAVSLLRCTGCCGDENLHCVPVETANVTMQLLKIRSGDRPSYVELTFSQHVRCECRPLREKMKPERCGDAVPRRHHHHHH
# notes: Expressed in human fibrosarcoma cells, purified on a Nickel column, glycosylated; RC4 96.7% monomer; R3 97.1% monomer, formulated in 1 mM DTT; also called C59A PLGF; not shown: Tev protease cleavage site added at the C-terminus
# What was measured:
# [1] = target: Flt-1 receptor (plate based assay) (Homo sapiens (Human), UniProt P17948 27-758); experiment: plate based assay: Flt-1 captured by coated mouse monoclonal anti-Flt-1 antibody, bound PLGF detected with biotinylated goat anti-PLGF antibody and streptavidin-HRP, OD450
# Procedure: A plate based assay was performed to examine the binding of mutant PLGF protein to Flt-1. Briefly, plates were coated with a mouse monoclonal anti-Flt-1 antibody for capture. After washing and blocking steps, 250 ng/ml of Flt-1 receptor was incubated with WT PLGF (0-400,000 pg/ml) or PLGF C59A (0-40,000 pg/ml) in the plate. After further washing steps, bound WT or mutant PLGF were detected using a biotinylated goat anti-PLGF antibody and streptavidin-HRP immunodetection system. PLGF C59A appeared to bind Flt-1 with lower affinity than WT PLGF. (FIG. 1).
# [2] = target: T1, human sFlt-1-Fc (human, UniProt P17948-2 27-687, limits assumed); experiment: SPR (Biacore T200), hsFlt-1-Fc, 1:1 model; column 'KD (M) Average' of the two runs
# T1 construct: A bought fusion protein; also called hsFlt-1-Fc; hsFlt-1-Fc dimer; not shown: Fc part (captured and detected with anti-human IgG Fc)
# [3] = target: T1, human sFlt-1-Fc; experiment: SPR (Biacore T200), hsFlt-1-Fc captured by anti-hIgG Fc, PLGF as analyte, 1:1 model
# Procedure: (§1) In the capture approach, goat anti-hIgG Fc polyclonal antibody (30 μg/mL in 10 mM acetate buffer, pH 5.0) was immobilized onto a CM5 chip by amine coupling. The immobilization level or surface density of anti-hIgG Fc antibody was controlled between 6000 to 8000 RU. For the kinetic study, sFlt-1-Fc was captured on the surface that was immobilized with the anti-hIgG Fc antibody, before each injection of PLGF variants. The capture level of sFlt-1-Fc (10 μg/mL) was controlled by varying contact time, 10 to 30 seconds, at flow rate 10 μL/min. PLGF variants, as analytes, were serially diluted in HBS-EP+ buffer from 50 to 0.03 nM, and injected to the surface that captured sFlt-1-Fc. The association time for each PLGF variants injection was 300 seconds at 30 μL/min and dissociation time was 600 seconds at the same flow rate. After each round of PLGF variants' injection, a regeneration of […] H3PO4 pH1.8 at 60 μl/min for 90 seconds was performed. The regeneration step effectively removes the complex of sFlt-1-Fc and PLGF variants from the surface that was immobilized with anti-hIgG Fc antibody. A stabilization step was applied for 90 seconds after regeneration.
# Two BIACORE experiment formats, single cycle kinetics and anti-Fc capture approach, were used to study binding characteristic of PLGF variants with hsFlt-1.
# [4] = target: T2, mouse sFlt-1 (mouse, UniProt P35969 23-759, limits assumed); experiment: SPR (Biacore T200), msFlt-1 captured, PLGF as analyte, 1:1 model
# T2 construct: also called msFlt-1
# T2 sequence (looked up): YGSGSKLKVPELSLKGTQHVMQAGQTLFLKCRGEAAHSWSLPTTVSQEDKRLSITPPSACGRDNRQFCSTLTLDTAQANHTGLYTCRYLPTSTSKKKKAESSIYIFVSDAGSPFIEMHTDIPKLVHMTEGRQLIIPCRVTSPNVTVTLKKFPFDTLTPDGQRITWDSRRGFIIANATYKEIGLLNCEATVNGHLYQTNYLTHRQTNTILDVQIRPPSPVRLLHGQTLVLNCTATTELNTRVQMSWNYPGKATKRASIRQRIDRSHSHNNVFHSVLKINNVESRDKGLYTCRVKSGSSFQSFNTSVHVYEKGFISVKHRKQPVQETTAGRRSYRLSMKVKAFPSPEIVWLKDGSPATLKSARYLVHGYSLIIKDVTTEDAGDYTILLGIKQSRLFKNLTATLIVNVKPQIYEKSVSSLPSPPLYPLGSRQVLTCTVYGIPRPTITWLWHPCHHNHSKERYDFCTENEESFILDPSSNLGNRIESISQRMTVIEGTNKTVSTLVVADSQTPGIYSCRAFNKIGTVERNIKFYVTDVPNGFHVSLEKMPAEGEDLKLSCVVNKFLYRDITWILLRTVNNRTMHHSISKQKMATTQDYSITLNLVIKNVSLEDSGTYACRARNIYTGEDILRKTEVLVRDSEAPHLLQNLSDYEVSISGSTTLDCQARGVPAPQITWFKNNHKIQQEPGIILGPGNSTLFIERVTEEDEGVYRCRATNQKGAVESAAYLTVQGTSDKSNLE
# Procedure: as §1
# (§2) The binding characteristics of PLGF variants, PLGF C59A, human WT PLGF and mouse WT PLGF, with msFlt-1 were studied in the mouse model. The same capture approach for hsFlt-1 was used for the msFlt-1.
# [5] = target: T1, human sFlt-1-Fc; experiment: VEGF:sFlt1 inhibition ELISA: binding of human sFlt-1 Fc to immobilized human VEGF in the presence of PLGF, detected with HRP anti-human IgG Fc, normalized to binding without PLGF
# Procedure: Inhibition of binding of VEGF to sFlt-1 by WT PLGF and PLGFC59A was also assessed by ELISA. The addition of recombinant human […] inhibited binding of recombinant VEGF to recombinant human sFlt-1 chimera (FIG. 6). Binding of human sFlt-1 Fc to immobilized human VEGF was quantified by immunodetection with HRP conjugated anti-human IgG Fc. Data were normalized to binding sFlt-1 Fc to VEGF in the absence of PLGF.
# [6] = target: T1, human sFlt-1-Fc; experiment: SPR (Biacore T200), hsFlt-1-Fc captured by anti-hIgG Fc, PLGF as analyte, 1:1 model; first of the two unlabelled rows for Human WT-PLGF on Human sFlt-1
# [7] = target: T2, mouse sFlt-1; experiment: SPR (Biacore T200), msFlt-1 captured, 1:1 model; column 'KD (M) Average' of the two runs
# Procedure: as §1, §2
# [8] = target: T1, human sFlt-1-Fc; experiment: surface plasmon resonance (BIACORE), overlaid multi-cycle sensorgrams with 1:1 binding model fit; the sheet says only 'sFlt-1', neither species nor format is printed
# [9] = target: T1, human sFlt-1-Fc; experiment: SPR (Biacore T200), hsFlt-1-Fc, 1:1 model; format of this run (capture or single cycle) not marked in the table
# Procedure: In the single cycle kinetic approach, PLGF C59A at 50 μg/ml in 10 mM acetate buffer pH 5.0 was immobilized via ligand thiol coupling to ˜200 RU. sFlt-1-Fc dimer was serially diluted in HBS-EP+ running buffer from 30 to 1.875 nM. The sFlt-1-Fc dimer was injected from low to high concentration sequentially, without dissociation phase and regeneration step. The association step was 180 seconds per injection at 30 μL/min. At the end of the last injection, one single dissociation step was performed at 30 μL/min, for one hour to collect sufficient dissociation data.
# Due to the nonspecific binding of hsFlt-1 on the reference cells and the poor regeneration conditions for PLGF C59A, a single cycle kinetic method were adopted by immobilizing PLGF C59A vial thiol coupling, and injecting hsFlt-1 as analyte. In the single cycle kinetic approach, PLGF C59A was immobilized onto CM4 chips through free cysteine residuals, C69 and C125, in PLGF C59A. Concentration of the Flt1-Fc dimer injected was varied from 0.37 to 30 nM. The binding characteristics, association rate constant (Ka), dissociation rate constant (Kd) and equilibrium dissociation constant (KD), are summarized in Table 6.
# [10] = target: T2, mouse sFlt-1; experiment: SPR, capture approach
# Procedure: as §1, §2
# [11] = target: T1, human sFlt-1-Fc; experiment: isothermal titration calorimetry, PLGF C59A in the syringe titrated into sFlt-1-Fc in the cell, 25 C, PBS pH 7.4, model OneSites
# Procedure: (§3) PLGF C59A and human sFlt-1-Fc (Cat#321-FL/CF, R&D System) were extensively dialyzed against PBS pH 7.4 buffer overnight. After dialysis, the proteins were concentrated using VIVISPIN 500 (10 kDa Cutoff, Cat# vs0601). The ratio of PLGF C59A in syringe to sFlt-1-Fc in the cell was about 10:1, with PLGF C59A concentration to be 77 μM, and the concentration of sFlt1-Fc to be 5.3 μM. Titrations were carried out using 2.0-μL injections for total 18 injections. An initial 2-μl injection was carried out but the data not included in the final data analysis. All titrations were done at 25° C. The binding isotherm was fitted with nonlinear regression on ORIGIN (GE MICROCAL, INC). The stoichiometry (N) of the binding interaction, the equilibrium association constant (KA) and enthalpy (ΔH) of the complex formation were calculated from the titration data.
# [12] = target: T1, human sFlt-1-Fc; experiment: isothermal titration calorimetry, PLGF C59A (77 uM) titrated into sFlt-1-Fc (5.3 uM), 25 C, PBS pH 7.4
# Procedure: as §3
# T1 sequence (P17948 other isoform, or with tags, fused parts or gaps limits assumed): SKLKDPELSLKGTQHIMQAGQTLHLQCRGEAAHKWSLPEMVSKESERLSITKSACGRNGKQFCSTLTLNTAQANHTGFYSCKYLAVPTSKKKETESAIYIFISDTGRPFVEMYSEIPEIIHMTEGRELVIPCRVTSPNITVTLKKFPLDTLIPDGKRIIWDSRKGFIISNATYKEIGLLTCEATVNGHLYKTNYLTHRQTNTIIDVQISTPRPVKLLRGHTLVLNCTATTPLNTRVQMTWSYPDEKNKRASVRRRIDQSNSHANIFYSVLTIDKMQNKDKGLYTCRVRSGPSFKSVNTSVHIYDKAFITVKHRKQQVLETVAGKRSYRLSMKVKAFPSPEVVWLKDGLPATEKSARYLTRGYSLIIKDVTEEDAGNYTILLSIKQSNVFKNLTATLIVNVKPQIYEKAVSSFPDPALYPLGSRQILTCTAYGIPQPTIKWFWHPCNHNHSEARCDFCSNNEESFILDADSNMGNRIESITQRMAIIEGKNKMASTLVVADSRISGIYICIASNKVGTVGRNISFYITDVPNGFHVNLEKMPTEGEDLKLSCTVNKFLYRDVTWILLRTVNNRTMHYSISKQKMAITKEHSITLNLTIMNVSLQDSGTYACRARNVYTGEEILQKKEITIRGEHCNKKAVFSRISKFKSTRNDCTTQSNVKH
# Sequence of Flt-1 receptor (plate based assay) (P17948 27-758 limits assumed): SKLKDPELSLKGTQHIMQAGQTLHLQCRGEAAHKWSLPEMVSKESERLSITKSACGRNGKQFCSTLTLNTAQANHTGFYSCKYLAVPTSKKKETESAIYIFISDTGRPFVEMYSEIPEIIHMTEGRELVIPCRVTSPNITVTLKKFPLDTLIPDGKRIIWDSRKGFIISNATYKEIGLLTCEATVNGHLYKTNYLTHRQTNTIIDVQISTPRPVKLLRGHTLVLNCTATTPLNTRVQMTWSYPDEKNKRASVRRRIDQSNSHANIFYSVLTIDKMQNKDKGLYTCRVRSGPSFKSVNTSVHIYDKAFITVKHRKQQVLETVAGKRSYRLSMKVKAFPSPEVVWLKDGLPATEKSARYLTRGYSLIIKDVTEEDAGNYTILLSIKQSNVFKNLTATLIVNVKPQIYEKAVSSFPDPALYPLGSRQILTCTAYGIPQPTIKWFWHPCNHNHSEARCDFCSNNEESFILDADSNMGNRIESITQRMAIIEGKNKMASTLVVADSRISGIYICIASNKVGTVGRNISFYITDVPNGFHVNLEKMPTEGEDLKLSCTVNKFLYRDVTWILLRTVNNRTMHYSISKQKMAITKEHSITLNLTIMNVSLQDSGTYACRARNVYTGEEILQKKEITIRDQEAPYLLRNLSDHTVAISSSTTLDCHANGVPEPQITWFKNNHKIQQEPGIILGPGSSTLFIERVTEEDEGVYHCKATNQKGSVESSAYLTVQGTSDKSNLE
binder,measurement,setting,value
B1,EC50 (read off the curve),[1],~0.2 nM
same,Kd,[2],0.0405 nM
same,Kd,[3],0.0259 nM and 0.0551 nM
same,koff,[3],6.03e-05 s⁻¹ and 8.86e-05 s⁻¹
same,kon,[3],1.61e+06 M⁻¹ s⁻¹
same,koff,[4],0.000243 s⁻¹ and 0.000152 s⁻¹
same,kon,[4],2.73e+06 M⁻¹ s⁻¹ and 6.36e+06 M⁻¹ s⁻¹
same,IC50,[5],4.59 nM
same,kon,[6],2.33e+06 M⁻¹ s⁻¹
same,Kd,[7],0.0565 nM
B2,Kd,[4],0.0301 nM and 0.0109 nM
same,koff,[4],0.000135 s⁻¹ and 9.69e-05 s⁻¹
same,kon,[4],4.49e+06 M⁻¹ s⁻¹ and 8.86e+06 M⁻¹ s⁻¹
same,Kd,[7],0.0205 nM
B3,Kd,[2],1.25 nM
same,Kd,[4],7.22 nM and 3.12 nM
same,koff,[4],0.000496 s⁻¹ and 0.000633 s⁻¹
same,kon,[4],159000 M⁻¹ s⁻¹ and 87700 M⁻¹ s⁻¹
same,IC50,[5],28.3 nM
same,Kd,[8],0.572 nM
same,koff,[8],0.000338 s⁻¹
same,kon,[8],592000 M⁻¹ s⁻¹
same,Kd,[9],1.61 nM and 0.886 nM
same,koff,[9],0.000372 s⁻¹ and 0.000234 s⁻¹
same,kon,[9],231000 M⁻¹ s⁻¹ and 264000 M⁻¹ s⁻¹
same,fold weaker affinity than human WT PLGF with msFlt-1,[10],~90 fold
same,fold weaker affinity than mouse WT PLGF with msFlt-1,[10],~250 fold
same,Ka,[11],2.03e+07 M⁻¹
same,ΔH,[11],-12.8 kcal/mol
same,ΔS,[11],-9.4 cal/mol/deg
same,Kd,[12],~49 nM
same,Kd,[7],5.17 nM
